Drawing on PMC9645375 (Chemical Science, 2022), this text covers IC50 for 1 molecule.

The target of this test is HDM2 (human double minute 2) protein (human, UniProt Q00987 1-491). The test can be described thus: fluorescence polarisation. The following applies: both partners purified.
HDM2 (human double minute 2) protein, sequence (Q00987 whole entry): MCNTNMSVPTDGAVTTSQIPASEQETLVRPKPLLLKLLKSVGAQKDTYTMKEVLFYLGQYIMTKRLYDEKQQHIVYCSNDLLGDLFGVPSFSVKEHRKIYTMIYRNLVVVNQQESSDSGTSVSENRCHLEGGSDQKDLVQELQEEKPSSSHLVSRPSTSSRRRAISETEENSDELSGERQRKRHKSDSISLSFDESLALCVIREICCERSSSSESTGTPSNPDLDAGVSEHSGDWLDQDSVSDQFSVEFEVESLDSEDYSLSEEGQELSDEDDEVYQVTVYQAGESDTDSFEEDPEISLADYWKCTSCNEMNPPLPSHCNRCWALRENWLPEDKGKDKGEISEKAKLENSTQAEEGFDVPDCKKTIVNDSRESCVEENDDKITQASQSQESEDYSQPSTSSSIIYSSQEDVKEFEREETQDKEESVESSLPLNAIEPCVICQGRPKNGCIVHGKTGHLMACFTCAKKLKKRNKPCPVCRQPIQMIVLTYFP

PCFYDYWQCL (not fully specified; stapled (the two Cys residues at i and i+7 cross-linked), source: synthetic peptide) [stapled HDM2-opt peptide] yielded an IC50 of 6.9 ± 1.9 µM.
